From patent publication US20260209316A1 (US Dept. of Health and Human Services, published 2026)
Read-outs that look alike come from different tables or passages of the source.

T1: full-length Sudan GP (GPFL) (Sudan virus (SUDV), UniProt Q7T9D9 33-650)
T1 construct: also called Sudan GPFL; GP(S)FL
T1 sequence: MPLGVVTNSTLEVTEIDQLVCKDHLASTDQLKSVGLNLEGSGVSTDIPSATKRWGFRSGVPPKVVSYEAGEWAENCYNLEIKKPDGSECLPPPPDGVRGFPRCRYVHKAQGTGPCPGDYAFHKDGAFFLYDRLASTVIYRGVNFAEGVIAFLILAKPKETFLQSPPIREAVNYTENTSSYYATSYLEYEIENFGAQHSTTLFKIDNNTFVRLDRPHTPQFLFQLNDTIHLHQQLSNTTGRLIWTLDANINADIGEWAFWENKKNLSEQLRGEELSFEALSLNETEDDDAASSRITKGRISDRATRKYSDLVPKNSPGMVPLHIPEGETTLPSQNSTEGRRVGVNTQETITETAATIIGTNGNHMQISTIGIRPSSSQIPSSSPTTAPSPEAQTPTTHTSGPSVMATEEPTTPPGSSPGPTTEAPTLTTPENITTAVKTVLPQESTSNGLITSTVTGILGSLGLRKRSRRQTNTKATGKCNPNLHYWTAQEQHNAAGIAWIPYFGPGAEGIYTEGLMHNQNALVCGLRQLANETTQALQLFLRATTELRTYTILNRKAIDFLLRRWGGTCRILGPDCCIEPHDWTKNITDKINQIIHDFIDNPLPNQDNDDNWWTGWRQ

T2: SUDV GP on pseudotyped lentiviral vector (Sudan virus (SUDV), UniProt Q7T9D9 33-676)
T2 sequence: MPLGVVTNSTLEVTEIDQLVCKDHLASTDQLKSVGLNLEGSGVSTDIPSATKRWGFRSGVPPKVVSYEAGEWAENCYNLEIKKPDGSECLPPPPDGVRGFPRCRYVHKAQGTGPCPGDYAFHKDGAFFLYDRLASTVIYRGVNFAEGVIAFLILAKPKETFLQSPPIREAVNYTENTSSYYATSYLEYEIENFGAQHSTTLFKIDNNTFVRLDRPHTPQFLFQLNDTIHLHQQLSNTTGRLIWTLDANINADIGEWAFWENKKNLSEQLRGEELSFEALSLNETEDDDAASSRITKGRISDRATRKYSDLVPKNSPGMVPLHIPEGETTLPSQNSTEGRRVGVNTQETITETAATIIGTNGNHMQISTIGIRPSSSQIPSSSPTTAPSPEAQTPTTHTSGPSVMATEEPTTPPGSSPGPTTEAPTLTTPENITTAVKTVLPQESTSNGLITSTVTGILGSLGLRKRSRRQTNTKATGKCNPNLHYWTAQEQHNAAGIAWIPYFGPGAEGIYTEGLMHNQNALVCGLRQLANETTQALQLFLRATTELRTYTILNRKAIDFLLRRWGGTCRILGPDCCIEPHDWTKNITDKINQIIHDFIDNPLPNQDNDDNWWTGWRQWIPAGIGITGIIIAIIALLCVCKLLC

T3: full-length Zaire GP (GPFL) (Ebola (Zaire) virus (EBOV), UniProt Q05320 33-632)
T3 construct: also called Zaire GPFL; GP(Z)FL
T3 sequence: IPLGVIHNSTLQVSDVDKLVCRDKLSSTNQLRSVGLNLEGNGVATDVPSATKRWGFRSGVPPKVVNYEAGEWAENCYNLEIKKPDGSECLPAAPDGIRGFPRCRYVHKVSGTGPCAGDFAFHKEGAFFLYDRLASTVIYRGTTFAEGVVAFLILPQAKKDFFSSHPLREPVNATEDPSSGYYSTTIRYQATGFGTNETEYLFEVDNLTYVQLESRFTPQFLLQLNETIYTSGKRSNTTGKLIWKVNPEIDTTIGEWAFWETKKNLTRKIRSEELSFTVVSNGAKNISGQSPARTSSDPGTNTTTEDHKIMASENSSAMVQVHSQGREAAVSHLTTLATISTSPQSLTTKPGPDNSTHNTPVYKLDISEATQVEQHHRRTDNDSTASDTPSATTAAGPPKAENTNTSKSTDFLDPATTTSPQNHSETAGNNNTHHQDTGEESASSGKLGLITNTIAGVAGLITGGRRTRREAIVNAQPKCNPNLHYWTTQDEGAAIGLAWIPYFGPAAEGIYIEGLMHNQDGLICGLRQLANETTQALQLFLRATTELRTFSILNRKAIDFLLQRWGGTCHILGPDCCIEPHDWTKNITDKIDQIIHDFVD


What was measured:
[1] = target: T1, full-length Sudan GP (GPFL); experiment: ELISA on coated GP
[2] = target: T2, SUDV GP on pseudotyped lentiviral vector; experiment: cell-based or functional assay
[3] = target: T1, full-length Sudan GP (GPFL); experiment: ELISA on coated GP; remark: listed apart in the source
[4] = target: T3, full-length Zaire GP (GPFL); experiment: ELISA on coated GP
[5] = target: T1, full-length Sudan GP (GPFL); experiment: ELISA on coated GP; remark: listed apart in the source
[6] = target: T2, SUDV GP on pseudotyped lentiviral vector; experiment: cell-based or functional assay; remark: listed apart in the source
[7] = target: T2, SUDV GP on pseudotyped lentiviral vector; experiment: cell-based or functional assay; remark: listed apart in the source

Binder	EC50 [1] [mg/L]	IC50, microneutralization of GP-pseudotyped lentiviral vector on HEK293 cells [2] [mg/L]	further results
antibody 541S (antibody, V domains shown) VH: QVQLVQSGAEVKKPGASVKVSCKASGYTFTNYAITWVRQAPGQGLEWMGWISAFNGQINYAQKFQGRVAMTTDTSTSTAYMELRSLRSDDTAVYYCARAPPMWFSGAKFDYWGQGTLVTVSS VL: QSVLTQPPSVSGTPGQRVTISCSGSSSNIGSNTVNWYQQLPGTAPKLLIYSNDQRPSGVPDRFSGSKSGTSASLAISGLRSEDEADYYCAAWDETLRRVFGGGTRLTVL	0.368	0.478	
antibody 241S (antibody, V domains shown) VH: QVQLVQSGSELKKPGASVKVSCKASGYTFTSYTVNWVRQAPGQGLEWMGWINTNTGNPTYAQGFTGRFVFSSDTSVSTAYLQISDLKAEDTAMYYCARHVAYDLWSGHTVTFDHWGQGTLVTVSS VL: QSALTQPPSASGSPGQSVTISCTGTSSDVGAYNYVSWYQQHPGKAPKLIIYEVTKRPSGVPDRFSGSKSGNTASLTVSGLQAEDEADYYCSSKAGGKTYVFGTGTKVTVL	0.232	0.0275	
antibody 314L (antibody, V domains shown) VH: EERLVESGGGLVQPGGSLRLSCAASGFTFGDYAMHWVRQVPGKSLEWLSGISWSGYTTYSADSVKGRFTISRDNAKNSLYLQMNRLRPEDTGLYYCVTLIGAIGIKDSLDVWGRGVLVTVSS VL: EVVFTQPHSVSGSPGQMVTISCTRSSGTIDNSYVYWHQQRPGSAPTTVIYNDDQRPSGVPDRFSGSIDSSSNSASLTISGLKSEDEADYYCQSYDSSGWVFGGGTRLTVL			EC50 [3]: 1.05 mg/L; EC50 [4]: 1.73 mg/L
antibody 578S (antibody, V domains shown) VH: EVQLVESGGGVVQPGRSLRLSCAASGFTFSSYELHWVRQAPGKGLEWVAVISYDGSSKYYADSLKGRFTISRDNSKNTLSLQMNSLRAEDTAMYYCVRQSEAYCSDGRCDWRRALDIWGQGTMVTVSP VL: DIQMTQSPSSLSASVGDRVTITCQASQDIKNYLNWYQQKPGKAPKLLIYDVSKLETGVPSRFSGSGSGTDFSFTISSLQPEDIATYYCQQYDNLPSYTFGQGTKLEIK			EC50 [5]: 0.18 mg/L; IC50, microneutralization of GP-pseudotyped lentiviral vector on HEK293 cells [6]: 1.09 mg/L
antibody 354S (antibody, V domains shown) VH: QVQLVQSGAEVKKPGASVKVSCKASGYSFASYYIHWVRQAPGQGLEWMGIINPSGGTTSYAQKFQGRVTMTRDTSTSTVYMELSSLGSEDTAVYYCARIVDRVTIYLNGVDNYWGQGTLVTVSS VL: EIVMTQSPATLSVSPGERVTLSCRASQSVSSNLAWFQQTPGQAPRLLIYGASTRASGVPARFSGSGSGTEFTLTISSLQSEDFAVYYCLQYNNWPPGWKYGFGQGTKLEIK	0.0613	0.03	
antibody 503S (antibody, V domains shown) VH: QVQLVQSGAEVKKPGASVRVSCKASGYTFTSYYMHWVRQAPGQGLEWMGQINPSGGTTRYERKFQGRITVTRDTSTSTVYLELSSLRSEDTASYFCACLRDKVTYYDLWSGVDSVWGQGTLVTVSS VL: DIQMTQSPSSLSASVGDRVTITCRASQDISTWLAWYQQKPEKAPKSLIYAASTLETGVPSRFSGSGSGTDFTLTISSLQPEDFATYYCEQYNGFPRTFGQGTKLDIK	0.64	0.102	
antibody 315L (antibody, V domains shown) VH: QVQLQESGPGLVKPSETLSLTCTVSGGSITGNYWTWVRQPPGKGLQYIGRFDAGGKTYYNPPLKSRVSILGDKSKNQVSLNLTSVTVADTGVYYCAREQWGQLLSGSFDVWGRGVLVTVSS VL: SYELTQPPSVSVSPGQTARITCSGDALPDYYAHWYQQKSGQAPMLVIYKDTERPSGIPERFSGSSSGTTVSLTISGVQAEDEADYYCQSGDSSGNHWVFGGGTRLTVL			EC50 [3]: 0.01 mg/L; EC50 [4]: 1.8 mg/L; IC50, microneutralization of GP-pseudotyped lentiviral vector on HEK293 cells [7]: > 10 mg/L
antibody 573S (antibody, V domains shown) VH: EVQLVESGGGLVKPGGSLRLSCAASGFTFSSYTMNWVRQAPGKGLEWVSCIRSSSSDKYYADSVKGRFTISRDNTKNSLYLQMNSLRADDTAVYYCARDLGGANNRYYFDYGMDVWGQGTTVTVSS VL: EIVMTQSPATLSVSPGGRATLSCRASQSVYTNLAWYQQKPGQAPRLLIYDASTRATGIPARFSGSGSGTEFTLTISSLQCEDFAVYYCQHYNNWPLYTFGQGTKLEIK	0.221	0.188	
antibody 102S (antibody, V domains shown) VH: EVQLVESGGGLVQPGGSLRLSCSASGFTFHSYDMNWARQAPGKGLEWVSEISSSGQSKNYADSVRGRFTISRDNAKNSLYLQINSLRSEDTAVYYCARVGFVAKFGSDFSITHGTYYLDYWGQGTLVTVSS VL: QLVLTQSPATLSLSPGERATLSCRASQSVSNYLAWYQQKPGQAPRLLIYDASNRAPGVPARFSGSGSGTDFSLTISSLEPEDFAVYYCLQRSNWPPWTFGQGTKVEIK			EC50 [5]: 0.09 mg/L; IC50, microneutralization of GP-pseudotyped lentiviral vector on HEK293 cells [6]: 0.88 mg/L
antibody 523S (antibody, V domains shown) VH: QVQLVQSGAELKKPGASVKVSCKASGYTFSDHYVHWVRQAPGQGLEWMGRINPNSGGTNYAQRFLGRVTMTRDASISTAYLDLSSLRSDDTAVYYCARSSSSWSGHYYYYMDVWGKGTTVTVSS VL: QSVLTQPPSVSAAPGQRVTISCSGSTSNIASNFVSWYQQLPGTAPKLLIYDNHKRPSGIPDRFSGSKSGTSATLGITGLQTGDEADYYCGTWDSSLSAGVFGGGTKVTVLG	0.371	0.108	
antibody 294S (antibody, V domains shown) VH: QVQLQESGPGLVKPSQTLSLTCTVSGGSISSGGYHWSWIRQHPGKGLEWIGNIYYNGRTYYNPSLKSRVTISVDTSENEFSLKLSSVTAADTAVYYCARDRRRPRIGHDYGMDVWGQGTKVIVSS VL: DIQMTQSPSSLSASVGDRVTISCRASQSISNFLNWYQQKPGQAPKLLIYTASNLQSGVPSRFSGSGSGTDFTLTISSLQPEDFATYYCQQIYNTGMYSFGQGTKLEIKR	0.0258	0.0192	
antibody 233S (antibody, V domains shown) VH: EVQLVESGGGLGQPGGSLRLSCAASGFKFKIFGMNWVRQAPGKGLEWVSYISSRSSIIYYADSVKGRFTISRDDATNSLFLQMNSLRDEDTAMYYCVRDYNLIDFVWGSLFDYWGQGILVTVSS VL: AIRMTQSPSSLSASTGDSVTITCRASQNIASYLAWYQQIPGKAPKLLIYVASTLQSGVPSRFSGSGSGTDFTLTISSLQSEDFATYYCQQYYRYPPTFGQGTKVEIK	0.133	0.167	
